Consider 41 sequences from the nanobody polyreactivity screen of Harvey et al. (2022).

A short description of this series: yeast display, Sf9 membrane polyspecificity reagent, FACS + sequencing; frameworks hold sequencing errors. An outline of the steps:
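Genes from sorted yeast were amplified by colony PCR, read by MiSeq 2 × 250 sequencing and filtered on CDR length. These cells carried a synthetic nanobody library in Saccharomyces cerevisiae BJ5465 and were sorted by FACS into low and high (top ~1%) gates on anti-HA and streptavidin fluorescence. Polyreactivity is labelled according to the gate of origin.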
Turning to “QVQLVESGGGLVQAGGSLRLSCAASGRTFGKNAMGWYRQAPGKERELVAAISWSGGRTYYADSVKGRFTISRDNAKNTVYLQMNSVKPVDTAVYYCATASYRNPSDYWGQGTQVTVSS”, the “polyreactivity (PSR sort gate)” value is reported as “high polyreactivity”.
In the case of “QVQLVESWGGLVQAGGSLRLSCADSGYIYDHYDMGWYRQAPGKDRELVAAISRSAGSTYYADSVKGRFTITRDNAKNTVYLQMNSLKPEDSAVYYCAADGKYYHRRPGWPIYDYWGQGTQVTVSS”, the “polyreactivity (PSR sort gate)” value is on record as “high polyreactivity”.
Regarding “QVQIVESGGGLVQAGGSLRLSCAASGRTLRYYSMGWYRQAPGKERELVAAISGSGGRTYYADSVKGRFTISRDNAKNTVYLQMNSLKPVDTAVYYCAKRYYRTAGDMDYWGLGTQVTVSS”, the “polyreactivity (PSR sort gate)” value was “high polyreactivity”.
For “QVQLVESGGGLVQAGGSLSLRCAASGRTLDVYAMGWYRQAPGKERELVARITSGGSTNYADSVKGRFTISRDNAKNTVYLQMNSLKPEDTSVYYCNAVVYTRPYTRPRYRYDYWGQGTQVTVSS”, the “polyreactivity (PSR sort gate)” value is “high polyreactivity”.
As for “QVQLVESGGGLVQAGGSLRLSSAASGSIFRSNAMGWYRQAPGKERELVAAIDYSGTSTTYADSVKGRFTISRDNAKNTVYLQMNRLKPEDTAVYYCNADGYYRGYWSGYEYWGQGTQVTVSS”, the “polyreactivity (PSR sort gate)” value is given as “low polyreactivity”.
The value for “QVQLVESGAALVQAGGSLRLSCAASGRTFWFNAMGWYRQPPGKERELVASISLSVGSTYYADSVKGRFTISRDNAKNTVYLQMNSLKAEDTAVYNCAADQTVHISSYDYWGQGTQVTVSS” was “low polyreactivity”.
As for “QVQLVESGGGLVQAGGSLRLSCAASGCIFVRYAMGWYRQAPGKERELVAAISRSGGSTSYADSVKGRFTISRDNAKNTVYLQMNSLKPEDTAVYYCAVVRGGRGYPGYDYWGQGTQVTVSS”, the “polyreactivity (PSR sort gate)” value was “low polyreactivity”.
In the case of “QVQLVESGGGLVQAGGSLRLSCAASGGIFGGNAMGWYRQAPGQERELVAAISRSSGSTYYADSVKGRFTISRDNAKNTVYLQMNSLKPEDSAVYYCNVEGYGRRFDYWGQGTQVTVSS”, the “polyreactivity (PSR sort gate)” value is “high polyreactivity”.
The entry for “QVQLVESGGGLVQAGGSLRLSCAASGRIFNVYAMGWYRPAPGTERELVAAIRRRGDRTYYADSVKGRFTLSRDNAKNTVYLQMNSLNPEDTADYYCAKSQSAKGGYDYWGQGTQVTVSS” is “high polyreactivity”; for “QVQLVESGGGLVQAGGSLRLSCAASRSTFEGYAMGLYRQAPGKERELVAAITVSVGSTYYADSVKGRFTISRDNAKNTVYLQMNSLKPEDTAVYYCAADYDYQYRYYYWGQGTQVTVSS” it is “low polyreactivity”; for “QVQHVDSGGGLVQARGTLRLSCSASGRNFGIYTMGWYRQPPVKERELVAAISWRGGSTYYADSVKGRFTISRDNAKNTVYFQLNSLKPEDTAVYYCGKTQPGWRPVRDQIRYGYWGQGTQVTVSA” it is “high polyreactivity”.
Turning to “QVQLEESGGGLVQAGGSLRLSCAASGRIFRANAMGRYRQAPGKERELVADITRRGASTYYADSVKGRFTISRDNAKNTVYLQMNSLKPEDTAVYYCNARGWPSSLLYLRDRYQMDYWGQGTQVTVSS”, the “polyreactivity (PSR sort gate)” value was “low polyreactivity”.
“QVQLVESGGGLVQAGGSLRLSCAASGRIFVRYAMGWYRQAPGKERELVAGITSGSRTNYADSVKGRFTISRDNAKNTVYLQMNSLKPEDTAVYYCNARVFRYYGIFDYWGQGTQVTVSS”: the “polyreactivity (PSR sort gate)” value is “high polyreactivity”.
The entry for “QVQLVESGGGLVQAGGSLRLSCAASGSIFLRYGMGWYRQAPGKERELVAAISRGGGSTYYADSVKGRFTISRDNAKNTVYLQMNSLKPEDTAVYYCNKASYRYSSDYDYWGQGTQVTVSS” is “high polyreactivity”; for “QVQLVESGGGLVQAGGSLRLSCAASGSTSTLYAMGWYRQAPGKERELVAAISKSGGRTYYADSVKGRFTISRDNAKNTVYLQMNSLKPEDTAVYYCAALAVYPRRFDYWGQGTQVTVSS” it is “high polyreactivity”.
Turning to “QVQLQESGGGMEQAGGSLRLSCAASGYISWADYMVWYRQAPGKERELVAGIGYGSTTYYADSVKGRFTISRANAKNTAYLQMNSLKPEDTAVYYCAVGWYRDTAYKYWGQGTQVTVSS”, the “polyreactivity (PSR sort gate)” value is listed as “low polyreactivity”.
Take “QVQLVESGGGLVQAGGSLRLSCAASGRNFKQYAMGWYRQAPGKERELVAVITRGGGSTYYADSVKGRFTISRDNAKNTVYLQMNSLKPEDTAVYYCAARGTQAPPGRRTGGYNSWGQGTQVTVSS”: the “polyreactivity (PSR sort gate)” value is given as “high polyreactivity”.
The value for “QVQLVESGGGLVQAGGSLRLSCAASGFTLAYYAMGWYRQAPGKERELVATISRRGGSTNYADSVKGRFTISRDNAKNTVYLQMNSLKPVDTAVYYCARTLYRGKSYHGHSKYDYWGQGTQVTVSS” was “high polyreactivity”; that for “QVQLVESGGGLVQAGGSLRISCAASGRIFKYYGMGWYRQAPGKERELVAAITRGDSTNYADSVKGRFTISRDNAKNTVYLQMNSLKPEETAVYYCNVGTRRGYDYWGQGTQVTVSS” was “high polyreactivity”; that for “QVQLVESGGGLVQAGGSLRLSCAASGRTFYVYAMGWYRQAPGKERELVAAITASGGSTYYADSVKGRFTLSRDNAKNTVYLQMNSLKPEDTAVYYCAARVVTLVRGVGYNYWGQGTQVTVSS” was “high polyreactivity”.
The entry for “QVQLVESGGGLVQAGGSLRLSCASSGFTFYYSMGLYRQAPVKERELVASINYSGGSTYYADSVKGRFTISRDNGKNTLYLQMNSLKAEETGVYYCAVDVRPRGLMYYWGQGTQVTVSS” is “low polyreactivity”; for “QLQLVESGGGLVQAGGSLRLSCAASGSTFVLYAKGWYRQAPGKERELVAAITWSGDDTYYADSVKGRFTISRDNEKNTVYLQMTSLKPEDTAVYSCAADGRGDLYVWPGIGGDYWGQGTQVTVSS” it is “low polyreactivity”; for “QVQLVETGGGLVQAGGSLRLSCAASGCTFKYNTMGWYRQAPGKERELVAAITSGGGSTNYADSVKGRFTISRDNAKNTVYLQMNSLKPEDTAVYYCAAYRRNTYWGQVTQVTVSS” it is “high polyreactivity”.
The value for “QVQLVESGGGLVQAGGSLRLSCAASGFIFKYYAMGWYRQAPGKERELVAAITGSGGRTYYADSVKGRFTISRDNAKNTVYLQMNSLKPEDTAVYYCAADLGGNSRLDYWGQGTQVTVSS” was “high polyreactivity”.
With “QVQLGESGGGLVQAGGSLRLSCAASGSTFGRYVMGWYRQAPAKERELVDAISKNAGSTYYADSVKGRFTISRDIAKKTVYLQMNSLKPEDTAVYYCAADWRTKGYDSLGQGTQVTVSS”, the “polyreactivity (PSR sort gate)” value is given as “high polyreactivity”.
“QVQLVESGGGLDQAGGSLRLICAASGFTYPIYAMGWYRQAPGKERELVAAITTRGGRTYYADSVKGRFTISRDNAKNTVYLQMNSLKAEDTAVYYCNALGYAYRLWFGYWGEGTQVTVSS”: the “polyreactivity (PSR sort gate)” value is “high polyreactivity”.
Take “QVQLVESGGGLVQAGGSLRLSCAAYGRIFKYYVMGWYRQAPGKERELVATISSGSGTNYADSVKGRFTISRDNAKNTVYLQMNSLKPEDTAVYYCAARWTPRVRGYNYWGQGTLVTVSS”: the “polyreactivity (PSR sort gate)” value was “high polyreactivity”.
The entry for “QVQLVESGGGLVQAGGSLRLSCAASGFIFPTYAMGWYRQAPGKERELVATITTNAGGTYYADSVKGRFTISRDNAKNTVYLQMNSLKPEDTAVYYCAHDYDGYVWDTEYDYWGQGTQVTVSS” is “low polyreactivity”; for “QVQLVESGGGLVQAGGSLRLSCAASGSTFRRYAMGWYRQAPGKERELVASISWSGGSTSYADSVKGRFTISRDTAKNTVYLQMNSLKPEDTAVYYCAAVRYYWGEYYARYAYEYWGQGTQVTVSS” it is “high polyreactivity”; for “QVQLVESGGGLVQSGGSLRLSCAASGSTFGFYAMGGYRQAPGKERELVAAISRGGSTNYADSVKGRFTISRDNAKNTVSCQMNSLKPEDTAVYYCAKAYHATSYYWGQGTQVTVSS” it is “low polyreactivity”.
In the case of “QVQLVESGGGLVQAGGSLRLSCAASGSTFAQNAMGWYILAPGKERELVAAISRRGTITNYADSVKGRFTISRDNEKITVYLQMYSLKPEDTAVYYCATRSWLLGIQGGYWGQGTQVTVSS”, the “polyreactivity (PSR sort gate)” value is on record as “high polyreactivity”.
The value for “QGQLVESWGGLVQAGGSLRLSCAASGSTLRRYAMGWYRQAPGKERELVAAISRRGGSTYYADSVKGRFSISRDFAKNTVYLEMNSLKPEDTAVYYCAAKGFSTRQFDYWGQGTQVTVSS” was “high polyreactivity”; that for “QVQLVESGGGLVQAGGSLRLTCAASGSTFQTYVMGLYIQAPGKERELVAAISSGGSTNYADSVKGRFTISRDNAKNNVYLLMKSLKPEDTAVYYCAAVYWAWGKNEYEYWGQGTQVTVSS” was “low polyreactivity”; that for “QVQLVESGGGLVQAGGSLRLSCAASGSTSPINAMGWYRQAPGKERELVAVISSSGGLTYYADSVKGRFTISRDNAKNTVYLQMNSLKPEDTAVYYCAKRFSRRQPDYDYGGQGTQVTVSS” was “high polyreactivity”.
As to “QVQLVESGGALVQAGGSLRLSCAASGFIFYSWYAMGWYRQAPGKQRELVAAIRSGGSTYYADSVKGRFTISRDNAKNTVYLQMNSLKPEDTAVYYCAVKYSWSEYGYWGQGTQVTVSS”, the “polyreactivity (PSR sort gate)” value is “low polyreactivity”.
The entry for “QVQLVESAGGLVQAGGSLRLSCAASGRIFSFNAMGWDRQAPGKERELVATIRTDGTTNYADSVKGRFTISRDNAKNTVYLQMNSLKPEDTAVYYCATDSGWSTYDYWGQGTQVTVSS” is “high polyreactivity”; for “QVQLVESGGGLFQAGGSLRLSCAASGLIFSSNAMGWYRQAPGKERELVATISWSGGSTYYADSVKGRFTISRDKAKNNVYLQMNSQKPEDTAVYYCAAAQRWSFLHYYYYWGQGTQVTVSS” it is “high polyreactivity”; for “QVQLVESGGGLVQAGGSLRLSCAASGFIFNHYAMAWYRQAPGKEREFVAAISWSGGSTYYADSVNGRFTISLDNAKNTVYLQMNSLKPEDTAVYYCGASYNGLWHGDYDYWGQGTQVTVSS” it is “low polyreactivity”.
The value for “QVQLVESGGGLVQAGGSLRLSCAASGRTFVRYAMGWYRQAPGKERELVARITSRGTSTYYADSVKGRFTISRDNAKNTVYLQMNSLKPEDTAFYYCNKVRTFRDKSRYDYWGQGTQVTVSS” was “low polyreactivity”; that for “QVQLVESGGGLVQAGGSLRLSCAASGFTFYSYAMGWYRQAPGKERELVAAISKRGGDTSYADSVKGRFTISRDNAKNTVYLQMNSLKPEDTAVYYCAKVYVPYGSSGGFLSRYNYWGQGTQVTVSS” was “high polyreactivity”; that for “QVQLVESGGGLVQAGGTLRLSCAASGRTFTSYTMGWYRQAPGKERELVATISFGGGRTYADSVKGRFTISRDNAKNTVYLQMNSLKTEDTAVYYCNAGYYWRLHWWYYYWGQGTQVTVSS” was “high polyreactivity”.
